Laboratory results as given in patent US11604185B2 (priority 2007, dated 2023).
Where no end group is shown, it is not given here. [ ]: non-standard residue; d: D form. The star is where a group is joined. 5FAM = O=C1OC2(c3ccc(O)cc3Oc3cc(O)ccc32)c2ccc(C(=O)*)cc21; Dabcyl = CN(C)c1ccc(N=Nc2ccc(C(=O)*)cc2)cc1; Nle = CCCC[C@H](N)C(=O)O

Legend:
[1] = test system: BoNT/A holotoxin, complex or the non-toxic LCs; format: biochemical, Clostridium botulinum
BoNT/A complex [2] = molecular target: T1, BoNT/A complex (Clostridium botulinum, UniProt P0DPI1); format: biochemical
BoNT/A light chain = BoNT/A light chain (Clostridium botulinum, UniProt P0DPI0)
Chain of BoNT/A light chain (P0DPI0 2-448 limits assumed): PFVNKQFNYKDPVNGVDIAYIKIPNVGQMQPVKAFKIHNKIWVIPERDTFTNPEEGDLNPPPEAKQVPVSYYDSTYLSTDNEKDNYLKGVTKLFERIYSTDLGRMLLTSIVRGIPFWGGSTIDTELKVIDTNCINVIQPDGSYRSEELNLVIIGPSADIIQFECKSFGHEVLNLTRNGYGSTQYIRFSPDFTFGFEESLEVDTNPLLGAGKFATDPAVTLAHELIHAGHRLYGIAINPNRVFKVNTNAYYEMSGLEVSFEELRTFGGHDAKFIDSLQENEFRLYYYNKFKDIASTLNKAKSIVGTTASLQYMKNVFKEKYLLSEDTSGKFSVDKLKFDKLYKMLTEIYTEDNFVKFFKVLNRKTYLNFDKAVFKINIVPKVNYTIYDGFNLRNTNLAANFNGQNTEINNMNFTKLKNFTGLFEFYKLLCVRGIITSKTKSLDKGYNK

Trypsin [3] = molecular target: T2, Trypsin (Sus scrofa, UniProt P00761); format: biochemical
BoNT/A complex [4] = molecular target: T1, BoNT/A complex
Trypsin [5] = molecular target: T2, Trypsin; format: biochemical; remark: listed apart in the source
Proteinase K = Proteinase K (Parengyodontium album, UniProt P06873); format: biochemical
BoNT/A subtypes A1 to A5 = format: biochemical, Clostridium botulinum
Thermolysin = Thermolysin (Bacillus thermoproteolyticus, UniProt P00800)
BoNT/B = BoNT/B (Clostridium botulinum, UniProt P10844)

“5FAM-KIDEANQRATK(Dabcyl)[Nle]-NH2 [SEQ ID NO: 14]” was tested, and the “cleavable by BoNT/A holotoxin, complex or non-toxic LCs alone” value (“cleavable … complex or non-toxic LCs alone” below) [1] was “can be cleaved”.
With `c1ccc(CN(CCN(Cc2ccccn2)Cc2ccccn2)Cc2ccccn2)nc1` [TPEN, N,N,N′,N′-Tetrakis (2-pyridylmethyl) ethylenediamine, reference compound] the “effect on BoNT metalloprotease activity” value (BoNT/A complex [2]) was “suppressed BoNT metalloprotease activity”.
With “Fam-K[5-Fam]IDEANQRATK[DABCYL]Nle-amide [SEQ ID NO: 13]” the “cleavable … complex or non-toxic LCs alone” value [1] was “can be cleaved”.
With “K(5FAM)IDEANQRATK(Dabcyl)[Nle]-NH2 [#201]” the “cleavable … complex or non-toxic LCs alone” value [1] was “can be cleaved”.
“K[5FAM]-IDEANQRATK[DABCYL]-Hex-CONH2 [#204]” was tested, and the “cleavage in microcolumn ALISSA” value (BoNT/A light chain) was “does not cleave the control peptide”.
In the case of “[4-Mu]TRIDEANQRATK[DABCYL] ({4‑Mu}-TRIDEANQRATK; not fully specified (residue 12); also: DABCYL label at C-terminal K, side chain or terminus not clear) [#111]”, the cleavage by trypsin (Trypsin [3]) is reported as “cleaved by trypsin” and the “cleavage by BoNT/A complex” value (BoNT/A complex [4]) is reported as “not by BoNT/A complex”.
Compound “[4-Mu]TRIDEANQRATK[DABCYL]-Hex ({4‑Mu}-TRIDEANQRATK; not fully specified (residue 12, C-terminus); also: DABCYL label and hexyl (-Hex) at C-terminal K, placement not clear) [#113]” has a Km (Trypsin [5]) of 13.3 ± 2.7 µM, a kcat (Trypsin [5]) of 83.90 ± 8.35 s⁻¹ and a Km (Proteinase K) of 4.87 ± 0.96 µM. The kcat (Proteinase K) was 30.64 ± 2.17 s⁻¹, the cleavage by trypsin (Trypsin [3]) was “cleaved by trypsin” and the “cleaved by BoNT/A subtypes (recombinant LCs)” value (BoNT/A subtypes A1 to A5) was “None”. For the same compound, the Km (Thermolysin) was 6.45 ± 0.8 µM, the kcat (Thermolysin) was 14.66 ± 0.71 s⁻¹ and the “cleavage by BoNT/A complex” value (BoNT/A complex [4]) was “not by BoNT/A complex”.
With “[5-Fam]TRIDEANQRATK[DABCYL] (5FAM-TRIDEANQRATK; not fully specified (residue 12); also: DABCYL label at C-terminal K, side chain or terminus not clear) [#110]” the cleavage by trypsin (Trypsin [3]) was “cleaved by trypsin” and the “cleavage by BoNT/A complex” value (BoNT/A complex [4]) was “not by BoNT/A complex”.
Compound “[5-Fam]TRIDEANQRATK[DABCYL]-Hex (5FAM-TRIDEANQRATK; not fully specified (residue 12, C-terminus); also: DABCYL label and hexyl (-Hex) at C-terminal K, placement not clear) [#112]” has a Km (Trypsin [5]) of 3.75 ± 0.79 µM, a kcat (Trypsin [5]) of 58.72 ± 4.17 s⁻¹ and a Km (Proteinase K) of 3.37 ± 0.67 µM. For the same compound, the kcat (Proteinase K) was 50.73 ± 3.28 s⁻¹, the cleavage by trypsin (Trypsin [3]) was “cleaved by trypsin” and the “cleaved by BoNT/A subtypes (recombinant LCs)” value (BoNT/A subtypes A1 to A5) was “None”. The “cleavage upon addition of increasing concentrations of BoNT/A complex” value (BoNT/A complex [2]) was “only little cleavage”, the Km (Thermolysin) was 3.58 ± 0.76 µM and the kcat (Thermolysin) was 24.26 ± 1.72 s⁻¹. For the same compound, the “cleavage by BoNT/A complex” value (BoNT/A complex [4]) was “not by BoNT/A complex”, the “cleavage by BoNT/A serotype” value (BoNT/A complex [4]) was “not cleaved” and the “cleavage by BoNT/B serotype” value (BoNT/B) was “not cleaved”.
